{
  "source": "paper PMC5155689",
  "about": "“Pro-invasive Effect of Proto-oncogene PBF Is Modulated by an Interaction with Cortactin” (The Journal of Clinical Endocrinology and Metabolism, 2016)",
  "binders": {"B1": {"name": "human Myc-CTTN (cortactin) (natural protein, UniProt Q14247 1-550, looked up)", "chain": "MWKASAGHAVSIAQDDAGADDWETDPDFVNDVSEKEQRWGAKTVQGSGHQEHINIHKLRENVFQEHQTLKEKELETGPKASHGYGGKFGVEQDRMDKSAVGHEYQSKLSKHCSQVDSVRGFGGKFGVQMDRVDQSAVGFEYQGKTEKHASQKDYSSGFGGKYGVQADRVDKSAVGFDYQGKTEKHESQRDYSKGFGGKYGIDKDKVDKSAVGFEYQGKTEKHESQKDYVKGFGGKFGVQTDRQDKCALGWDHQEKLQLHESQKDYKTGFGGKFGVQSERQDSAAVGFDYKEKLAKHESQQDYSKGFGGKYGVQKDRMDKNASTFEDVTQVSSAYQKTVPVEAVTSKTSNIRANFENLAKEKEQEDRRKAEAERAQRMAKERQEQEEARRKLEEQARAKTQTPPVSPAPQPTEERLPSSPVYEDAASFKAELSYRGPVSGTEPEPVYSMEAADYREASSQQGLAYATEAVYESAEAPGHYPAEDSTYDEYENDLGITAVALYDYQAAGDDEISFDPDDIITNIEMIDDGWWRGVCKGRYGLFPANYVELRQ", "notes": "cortactin (CTTN), human; Origene plasmid No. RC223259; the isoform of the clone follows from the catalogue number; also called myc-tagged CTTN; source: plasmid bought: Origene"}},
  "target": "T1, Y174A PBF-HA (UniProt P53801 33-180, Y174A)",
  "T1 construct": "also called PBF mutant Y174A; phospho-null PBF mutant (Y174A)",
  "T1 sequence (looked up)": "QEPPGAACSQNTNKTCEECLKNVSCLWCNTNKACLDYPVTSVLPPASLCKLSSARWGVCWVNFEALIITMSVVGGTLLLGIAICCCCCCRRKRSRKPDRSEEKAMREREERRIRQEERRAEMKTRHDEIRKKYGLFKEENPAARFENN",
  "experiment": "co-IP; myc-tagged CTTN and HA-tagged PBF (WT or Y174A) transfected in MCF-7 and HeLa cells; in HeLa also after 50 nM dasatinib or vehicle",
  "details": "partners not purified",
  "data": [
    {"binder": "B1", "values": [
      {"measurement": "fold change of binding against WT PBF", "value": "> 2", "unit": "fold"}
    ]}
  ]
}
